# Measurements reported in the supplement of paper PMC10724198.
# ± gives the standard deviation of the averaged measurements.
# Tested on: Saccharomyces cerevisiae
# Experiment: protein stability index of tFT-peptide fusion (C-terminal peptide) (PSI (0-1 scale)); higher = more stable (slower turnover)
# Settings: genetic background: wild type; temperature: 30 C
# Method: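 Multiplexed protein stability (MPS) profiling in S. cerevisiae. Random 12-aa peptides (tFT-X12 library) are fused to the C-terminus of a sfGFP-mCherry tandem fluorescent timer, after mCherry and a GGGS linker. Cells are FACS-sorted into 8 mCherry/sfGFP bins and deep-sequenced. The protein stability index (PSI) is the read-weighted bin average, scaled from 0 (unstable) to 1 (stable). Only peptides with >10 reads are reported; cells were grown at 30 °C in SC-His with glucose.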
# 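Further: PSI is a weighted mean of sequencing reads over stability bins, variants kept only with over 10 reads, mCherry proximal and sfGFP distal, peptide attached via GGGS linker.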
row,Sequence,protein stability index
1,EYVDVDVQDCRG,0.692 ± 0.035
2,FAGLVSPASLHP,0.686 ± 0.026
3,FAISTSMVNLAM,0.681 ± 0.039
4,FAPSPVPPLAPF,0.682 ± 0.053
5,FASLVSPWFDLV,0.716 ± 0.13
6,FASLVVSYGAGY,0.6712 ± 0.0019
7,FASVVADVFQFP,0.772 ± 0.088
8,FCCGGEFAWCLG,0.695 ± 0.016
9,FCCRLSGFSILG,0.663 ± 0.033
10,FCFFGRPCLSSV,0.714 ± 0.14
11,FCKTKVRDKATR,0.73 ± 0.035
12,FCLLPPFPFFRS,0.661 ± 0.022
13,FCLSPGYHSQLC,0.692 ± 0.023
14,FCTDFDTLCREC,0.647 ± 0.021
15,FCVFSFAAPGFP,0.6746 ± 0.00074
16,FCWRDIICAFFR,0.72 ± 0.019
17,FCWSFGVLLSFS,0.559 ± 0.0099
18,FDCTSCIPFRFL,0.679 ± 0.035
19,FDLLSVGRARSW,0.716 ± 0.036
20,FDSLFVSLSFAI,0.661 ± 0.03
21,FFAPPSSPSFSR,0.822 ± 0.063
22,FFDFCACICTFF,0.655 ± 0.045
23,FFGSFVFSLLFY,0.6025 ± 0.0047
24,FFLLPHPSRFFP,0.734 ± 0.025
25,FFLSDDALVYNH,0.788 ± 0.065
26,FFLWSLLGGLPC,0.661 ± 0.02

row,Sequence,protein stability index
1,FFPLSALFARPS,0.676 ± 0.0073
2,FFPQLRPNSSTS,0.724 ± 0.042
3,FFRFLLPFLPPS,0.70866 ± 0.0006
4,FFSPPLPPAPLT,0.775 ± 0.057
5,FFSVCLVFGLPG,0.543 ± 0.013
6,FFTDACQRVMKG,0.633 ± 0.049
7,FFWFIASTNFSS,0.609 ± 0.015
8,FGAFCSWLLLHS,0.61 ± 0.026
9,FGCDCFCPFCLR,0.706 ± 0.019
10,FGDTYICKPFWG,0.765 ± 0.033
11,FGESPWARVGGG,0.5749 ± 0.005
12,FGFSAVCFGNLC,0.6729 ± 0.0024
13,FGGSFEGRGRYY,0.737 ± 0.018
14,FGTVIEVVCGVM,0.5277 ± 0.0014
15,FGVGSITDEELD,0.735 ± 0.036
16,FGYEPVSLRAEF,0.675 ± 0.029
17,FILSPGHFHRVL,0.688 ± 0.076
18,FILTSLPSLCFP,0.696 ± 0.04
19,FILWSLIMGPYA,0.522 ± 0.019
20,FIPGGPSGFCFR,0.669 ± 0.075
21,FIVGIQTKPVKL,0.661 ± 0.11
22,FKFCLRSESSSE,0.66 ± 0.085
23,FKIFSGLVTLGG,0.7337 ± 0.0036
24,FKKTSRHTINRK,0.757 ± 0.023
25,FKNVTGWLFFCR,0.702 ± 0.064
26,FKTLIRKEQESE,0.754 ± 0.013

row,Sequence,protein stability index
1,FLCLLPLRLFGI,0.603 ± 0.021
2,FLDFLFLLVPSV,0.554 ± 0.019
3,FLDTSSYFMFAS,0.7123 ± 0.007
4,FLFCLLGSFRSF,0.5829 ± 0.004
5,FLGEKTCRSIIS,0.646 ± 0.083
6,FLGFGGAWSWGG,0.766 ± 0.16
7,FLHVSLSFSCSL,0.541 ± 0.0063
8,FLLPQLFVSSSF,0.699 ± 0.035
9,FLLSVVQGAVHQ,0.6 ± 0.036
10,FLLVPSPPSFTH,0.715 ± 0.12
11,FLPCPPSPPSPR,0.765 ± 0.06
12,FLPQCLGSNFHL,0.725 ± 0.016
13,FLRLVRIPNQVQ,0.6531 ± 0.0014
14,FLSRPIGAAIWA,0.543 ± 0.026
15,FLSYPFLSRPFL,0.804 ± 0.058
16,FLTSTLVSSGGD,0.676 ± 0.034
17,FLTVDGKLMRGP,0.699 ± 0.021
18,FLVCFPFALFGA,0.495 ± 0.052
19,FLYELGTTSSPR,0.73 ± 0.025
20,FLYPPAHPLLPP,0.7 ± 0.024
21,FMPRPSNRLSPS,0.723 ± 0.0078
22,FNGAISESGLPT,0.664 ± 0.053
23,FNIPYLVQATGD,0.676 ± 0.09
24,FNTCCQNTWKVK,0.677 ± 0.15
25,FPAPPPPPRPAS,0.69 ± 0.033
26,FPFCAFPPSPTC,0.75 ± 0.038

row,Sequence,protein stability index
1,FPFLAPSLVLPT,0.569 ± 0.012
2,FPFPTLSDLRPT,0.698 ± 0.036
3,FPGLHVNHPAWP,0.688 ± 0.027
4,FPHPPPSLPSPR,0.789 ± 0.064
5,FPHSPPFRLPLS,0.759 ± 0.089
6,FPLHPLLTSISL,0.68 ± 0.032
7,FPLHSSLSGPPC,0.737 ± 0.0083
8,FPLLGRCCRAVQ,0.682 ± 0.043
9,FPLPHVIPSPAS,0.559 ± 0.022
10,FPLPLPVLSSPS,0.646 ± 0.15
11,FPLSFLLDLLLV,0.509 ± 0.013
12,FPLTKASSPSLL,0.672 ± 0.073
13,FPLVPPPSSPLF,0.687 ± 0.022
14,FPPAHPPPCLPP,0.6473 ± 0.003
15,FPPPLPLLSPLP,0.671 ± 0.079
16,FPPPPPPPPPSP,0.723 ± 0.028
17,FPPPPPVPPPLS,0.723 ± 0.047
18,FPPPPRPSSPLL,0.693 ± 0.024
19,FPPPPYPEFYPC,0.798 ± 0.077
20,FPPSDPAPTLPP,0.749 ± 0.088
21,FPRFGRGVGRRT,0.67 ± 0.0073
22,FPRPSLPFPPHR,0.609 ± 0.00064
23,FPRRLLPLSPPP,0.704 ± 0.015
24,FPRRPSPGPLIS,0.678 ± 0.035
25,FPSCVLGGWYCG,0.7114 ± 0.0016
26,FPSPSLSSLPPL,0.725 ± 0.058

row,Sequence,protein stability index
1,FQCLPHGFYFGA,0.661 ± 0.0098
2,FQFSFLRFGGCA,0.651 ± 0.048
3,FQLFLPPFRLPP,0.801 ± 0.18
4,FQSSSKSRPRPA,0.669 ± 0.057
5,FQWAPGIDTVYC,0.705 ± 0.058
6,FRAYCLPCNYHR,0.68 ± 0.052
7,FRCQHVRVSASF,0.799 ± 0.028
8,FRDEVLGSGVGS,0.65 ± 0.017
9,FRELIRPSKENR,0.664 ± 0.025
10,FRFSELPTGFGQ,0.664 ± 0.058
11,FRGTLRFYRPVN,0.696 ± 0.016
12,FRGTVYRGTRPR,0.622 ± 0.072
13,FRKALRIQSVGS,0.6926 ± 0.0019
14,FRLAPPSVYDFV,0.7008 ± 0.002
15,FRLDRYLGGKIG,0.641 ± 0.063
16,FRNESLVAGKSG,0.717 ± 0.076
17,FRPPPTLLLRPH,0.676 ± 0.026
18,FRRHRHDVLTVR,0.599 ± 0.05
19,FRRRYGCLLRGE,0.6573 ± 0.004
20,FRSRFGPCLRSV,0.649 ± 0.027
21,FRTPASLSLPLS,0.676 ± 0.021
22,FSARCGGGLDWS,0.722 ± 0.038
23,FSASMSTIWQTG,0.602 ± 0.034
24,FSCKRMISKTGF,0.669 ± 0.035
25,FSFCRLPDSPSS,0.698 ± 0.026
26,FSFQTLPTPTSP,0.655 ± 0.06

row,Sequence,protein stability index
1,FSGCVEIYWHWL,0.662 ± 0.011
2,FSGLNWLLCHSK,0.704 ± 0.015
3,FSGWVFAPFFFF,0.644 ± 0.048
4,FSHPCPLSGLYP,0.716 ± 0.015
5,FSHPLLRARRTW,0.656 ± 0.086
6,FSLGPSPLRPHA,0.611 ± 0.086
7,FSLLSSSSFFVL,0.591 ± 0.01
8,FSLPPNPQPKLL,0.741 ± 0.07
9,FSLSRLCFCFRS,0.529 ± 0.024
10,FSNFVYFFFRSS,0.666 ± 0.12
11,FSPPLGRFLLRH,0.707 ± 0.062
12,FSPSFGSLLVIC,0.556 ± 0.02
13,FSPVSAPPTRVS,0.703 ± 0.042
14,FSRLLCPPSFSF,0.658 ± 0.0072
15,FSRVRNVLGLGG,0.73 ± 0.12
16,FSSAINSFAFQP,0.683 ± 0.026
17,FSSHGFSSFLLL,0.691 ± 0.084
18,FSSSMCLGMRLR,0.639 ± 0.096
19,FSSSSLFFSRTL,0.677 ± 0.052
20,FSVFFDFIIARF,0.632 ± 0.067
21,FSVFSCLVCSLD,0.575 ± 0.011
22,FSVWCDLFGFFC,0.674 ± 0.075
23,FTLRILSRPVIP,0.656 ± 0.046
24,FTQVIQQQRRVV,0.627 ± 0.067
25,FTSGESVCGGRV,0.698 ± 0.0026
